Tests used:
Assay in all cases: FRET or BRET
[1] = target: CaGpi2-His6 (C. albicans Gpi2, GPI-GnT subunit, tagged with His6 at the C-terminus) (C. albicans) (UniProt Q5A6L6)
[2] = target: CaGpi3 (C. albicans Gpi3, GPI-GnT subunit) (C. albicans (endogenous in BWP17-derived cells))
[3] = target: CaGpi8 (C. albicans Gpi8, subunit of the GPI-transamidase) (C. albicans (endogenous in the cells))

CaRas1 (C. albicans Ras1) (natural protein)
spatial distance r (AP-FRET) [1]: 5.3 nm

B1: CaArv1-V5 (C. albicans Arv1 tagged with V5 at its C-terminus) (natural protein)
chain: MICIECGYSNIDCLYSKYKSDYIKLSVCPECNKIADKYIEYDSVILFLDILLLKRQAYKHLAYNLTEMEMEIGSSTNFHINDNTNFKFFHTYRKLMKLIFMILSFEVYLTWANEEKLLIHSQLINLIFNQSVVYQYLFFIIKSSLENLILNLSLQLILRLGYKWGQGPQKINGNIRDKELFGYKTSVLLVTTMVSGSIRLFPILMFIWPYDNISITKPLINLIAFINIVEALRVVTSLGYVELILSLAFSIVIRNIVSKSLLVLIVRLFLDFNFTEVYYNEMYQLYSQIQTYIRWI
spatial distance r (AP-FRET) [2]: 6.3 nm | spatial distance r (AP-FRET) [3]: > 10 nm
